Test [1] concerns the target T1, mouse WISP-1-IgG (chimeric recombinant mouse WISP-1 bearing a human immunoglobulin Fc fragment tag) (mouse).
T1 construct: also called mWISP-1-IgG; WISP-1-Fc
Put plainly: competition solid phase assay: 0.25 nM WISP-1-IgG on coated human skin fibroblast conditioned media, soluble decorin varied. The protocol: (§1) Decorin and biglycan were coated to microtiter wells overnight. Non-specific binding sites were saturated and 0.25 nM of mWISP-1-IgG was incubated for 2 hours. The wells were washed and incubated with horseradish peroxidase conjugated anti-human IgG Fc′ (2 μg/ml) for 1 hour. After 6 washes with PBS containing 0.05% Tween-20, a signal was developed by the incubation of a chromogenic substrate. The color development was stopped by the addition of 1 M phosphoric acid and the O.D. at 450 nm was measured.
(§2) Fifty microliters of human skin fibroblast conditioned media were coated in wells of microtiter plates. Non-specific binding sites were saturated and 0.25 nM of WISP-1-IgG was incubated in the presence of various concentrations of decorin (filled circles) or biglycan (empty circles) (FIG. 5B) for 2 hours. The binding of mWISP-1-IgG was evaluated as described above.

For test [2], the target named is T1, mouse WISP-1-IgG (chimeric recombinant …). Put plainly: competition solid phase assay: 0.25 nM WISP-1-IgG on coated human skin fibroblast conditioned media, soluble biglycan varied. As for the experimental part: as §1, §2

In general, IC50 refers to the concentration that gives 50% inhibition.

T1 sequence (chain, as listed by the source mutant limits assumed): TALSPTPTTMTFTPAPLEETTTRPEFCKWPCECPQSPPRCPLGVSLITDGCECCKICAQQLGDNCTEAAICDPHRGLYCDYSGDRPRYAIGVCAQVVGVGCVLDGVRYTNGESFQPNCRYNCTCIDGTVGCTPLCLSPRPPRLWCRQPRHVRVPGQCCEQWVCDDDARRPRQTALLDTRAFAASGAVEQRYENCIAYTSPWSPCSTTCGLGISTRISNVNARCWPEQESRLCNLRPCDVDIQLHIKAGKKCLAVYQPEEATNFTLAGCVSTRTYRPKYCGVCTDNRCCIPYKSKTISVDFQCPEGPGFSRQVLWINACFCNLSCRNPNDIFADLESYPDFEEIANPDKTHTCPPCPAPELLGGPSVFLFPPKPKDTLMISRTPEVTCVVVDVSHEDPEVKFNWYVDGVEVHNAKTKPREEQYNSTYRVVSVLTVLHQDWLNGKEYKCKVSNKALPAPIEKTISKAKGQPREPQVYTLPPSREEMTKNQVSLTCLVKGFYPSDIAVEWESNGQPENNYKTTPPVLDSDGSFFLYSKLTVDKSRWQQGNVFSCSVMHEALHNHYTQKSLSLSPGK

B1: decorin from bovine articular cartilage (Sigma) (other, UniProt P21793 31-360, looked up)
chain: DEASGIGPEEHFPEVPEIEPMGPVCPFRCQCHLRVVQCSDLGLEKVPKDLPPDTALLDLQNNKITEIKDGDFKNLKNLHTLILINNKISKISPGAFAPLVKLERLYLSKNQLKELPEKMPKTLQELRVHENEITKVRKSVFNGLNQMIVVELGTNPLKSSGIENGAFQGMKKLSYIRIADTNITTIPQGLPPSLTELHLDGNKITKVDAASLKGLNNLAKLGLSFNSISAVDNGSLANTPHLRELHLNNNKLVKVPGGLADHKYIQVVYLHNNNISAIGSNDFCPPGYNTKKASYSGVSLFSNPVQYWEIQPSTFRCVYVRAAVQLGNYK
modifications: proteoglycan; dermatan sulfate glycosaminoglycan chain on the core protein (site not stated for this preparation)
On to B1, for which the IC50 in test [1] was found to be 70 µg/mL.

B2: biglycan from bovine articular cartilage (Sigma) (other, UniProt P21809 38-369, looked up)
chain: DEEASGAETTSGIPDLDSLPPTYSAMCPFGCHCHLRVVQCSDLGLKAVPKEISPDTTLLDLQNNDISELRKDDFKGLQHLYALVLVNNKISKIHEKAFSPLRKLQKLYISKNHLVEIPPNLPSSLVELRIHDNRIRKVPKGVFSGLRNMNCIEMGGNPLENSGFEPGAFDGLKLNYLRISEAKLTGIPKDLPETLNELHLDHNKIQAIELEDLLRYSKLYRLGLGHNQIRMIENGSLSFLPTLRELHLDNNKLSRVPAGLPDLKLLQVVYLHTNNITKVGVNDFCPVGFGVKRAYYNGISLFNNPVPYWEVQPATFRCVTDRLAIQFGNYKK
modifications: proteoglycan; glycosaminoglycan chains on the core protein (sites not stated for this preparation)
As for B2, in test [2], the IC50 was 105 µg/mL.

Source of the values: patent publication US20050054563A1 (Genentech, published 2005).
